Reference: US20250206828A1, “ANTI-ADENOSINE RECEPTOR (A2aR) ANTIBODIES AND THE USE THEREOF” (Adept Therapeutics Inc., priority 2022, published 2025)
Substitutions are numbered along the chain they refer to. In names and notes the source's numbering stands. Read-outs that look alike come from different tables or passages of the source.

Key:
[1] = target: T1, human adenosine A2A receptor (A2aR) (human, UniProt P29274 1-412); assay: flow cytometry titration, HEK293-hA2aR cells, purified antibody
T1 construct: Assays used HEK293 cells stably overexpressing human A2aR (BPS Bioscience 79381), human A2aR-expressing CHO cells, or endogenous A2aR on human PBMC; also called human A2aR; hA2aR
T1 sequence (P29274 whole entry): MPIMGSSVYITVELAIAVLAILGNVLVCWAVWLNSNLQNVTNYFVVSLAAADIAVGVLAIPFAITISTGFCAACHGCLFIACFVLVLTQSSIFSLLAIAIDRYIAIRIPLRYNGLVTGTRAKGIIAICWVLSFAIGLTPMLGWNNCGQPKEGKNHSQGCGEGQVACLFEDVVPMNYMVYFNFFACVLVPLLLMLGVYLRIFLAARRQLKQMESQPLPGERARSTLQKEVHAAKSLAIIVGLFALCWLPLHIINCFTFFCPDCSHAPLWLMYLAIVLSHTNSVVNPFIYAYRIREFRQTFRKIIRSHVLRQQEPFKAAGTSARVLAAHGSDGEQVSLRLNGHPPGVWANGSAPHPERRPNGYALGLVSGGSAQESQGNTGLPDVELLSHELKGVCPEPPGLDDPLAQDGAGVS

[2] = target: T1, human adenosine A2A receptor (A2aR); assay: flow cytometry, HEK293-hA2aR cells, supernatant 1 ug/ml
[3] = target: T1, human adenosine A2A receptor (A2aR); assay: as above; remark: listed apart in the source
human A2aR = human A2aR (Homo sapiens, UniProt P29274); assay: Binding of humanized anti-A2aR antibodies in transfected Expi293F cell supernatant to human A2aR on HEK293 cells (FACS, MFI); conditions: supernatant normalized to 1 μg/ml antibody; HEK293 cells stably overexpressing human A2aR; greater MFI = stronger binding; parental value average of triplicate
Chain of human A2aR (P29274 whole entry): as above
Experimental: Briefly, HEK293 cells that stably overexpress human A2aR (HEK-hA2aR OCL, BPS Bioscience, Cat. 79381) were collected from fresh culture. Cells were then resuspended in FACS buffer (1×DPBS/1% FBS) at 10^6/ml concentration. One hundred microliters (100 μl) of cells were aliquoted into each well of a 96 well plates. After centrifugation, cell pellets in each well were then resuspended with 100 μl normalized supernatant samples containing 1 μg/ml humanized anti-A2aR monoclonal antibody variants collected from transfected Expi293 cell culture. The supernatants were mixed with the cells and incubated on ice for 1 hours. After washing the mixtures of the supernatants containing expressed antibodies and the A2aR-expressing cells with FACS buffer, one hundred microliters (100 μl) of 1:400 diluted PE-conjugated anti-human Fc secondary antibody (Jackson Immuno Research, Cat. 109-116-098) was added to each well followed by an incubation for 30 minutes on ice. After washes with FACS buffer, stained cells were resuspended in 150 μl of 7-AAD (Biolegend, Cat. 420404) diluted 1:100 in 1×DPBS buffer and incubate for 5 minutes in the dark at room temperature before FACS analysis. The mean fluorescence intensity (MFI) was obtained using Guava 11HT or 5HT (Luminex). Data was analyzed using Flowjo software.
As shown in Tables 22-24, exemplary humanized anti-A2aR antibodies bind to A2aR expressed on a cell surface. A greater MFI value means stronger binding of the exemplary antibody to A2aR expressed on a cell surface.

[4] = target: T1, human adenosine A2A receptor (A2aR); assay: flow cytometry, HEK293-hA2aR cells, supernatant 1 ug/ml; remark: listed apart in the source

B1: Hu3F6-H2/Hu3F6-L8 (antibody, human IgG1, V domains shown)
VH: EVQLVQSGAEVKKPGASVKVSCKTSGFAFTSYWMNWVRQAPGQGLEWMGRIDPSDSEAHYHHKFWGRVTMTVDTSTSTVYMELSSLRSEDTAVYYCLRSLYGKGDYWGHGTTVTVSS
VL: DVVMTQSPLSLPVTPGEPASISCRSSQSLVHRNGNTYLEWYLQKPGQSPQLLIYKVSNRFSGVPDRFSGSGSGTDFTLKISRVEAEDVGVYYCYQGSHVPLTFGGGTKVEIK
notes: Human IgG1 FES (L234F, L235E, P331S) and human Ig kappa constant domains; also called Hu3F6 VH2/VL8
[1]
  EC50: 0.76 nM
[2]
  MFI: 1710 MFI

B2: Hu1B5-H3/Hu1B5-L3 (antibody, human IgG1, V domains shown)
VH: EVQLVQSGAEVKKPGASVKVSCKTSGFTFTRFWMNWVRQAPGQGLEWIGRIDPYDSETQYNHKFWDRATLTVDTSSSTVYMELSSLRSEDTAVYYCGRSLYGKGDYWGQGTTVTVSS
VL: B1 VL with P15L, E17Q, L29I, R32S, L42Q, K44R, Q50R, Y94F
notes: Human IgG1 FES (L234F, L235E, P331S) and human Ig kappa constant domains
[3]
  MFI: 1850 MFI

B3: Hu1B5-H6/Hu1B5-L4 (antibody, human IgG1, V domains shown)
VH: EVQLVQSGAEVKKPGESLRISCKTSGFTFTRFWMNWVRQMPGKGLEWIGRIDPYDSETQYNHKFWDHATLSVDKSSSTVYLQWSSLKASDTAMYYCGRSLYGKGDYWGQGTTVTVSS
VL: B1 VL with L29I, R32S, Y94F
notes: as for B2
[3]
  MFI: 1910 MFI

B4: Hu1B5-H4/Hu1B5-L1: humanized anti-A2aR IgG1 FES antibody; HCVR SEQ ID NO:55, LCVR SEQ ID NO:71 (antibody, V domains shown)
VH: B2 VH with T74K
VL: B1 VL with P15L, E17Q, L29I, R32S, Y41F, L42Q, K44R, Q50R, L51R, Y94F
modifications: IgG1 FES constant regions
Human A2aR
  binding to human A2aR on cell surface, mean fluorescence intensity (MFI): 182

B5: Hu1B5-H5/Hu1B5-L2 (antibody, human IgG1, V domains shown)
VH: B2 VH with N61A, T74K
VL: B1 VL with P15L, E17Q, L29I, R32S, L42Q, K44R, Q50R, L51R, Y94F
notes: as for B2
[3]
  MFI: 283 MFI

B6: Hu3F8-H6/Hu3F8-L2 (antibody, human IgG1, V domains shown)
VH: B3 VH with T24A, F32Y, Y54S, Q59H, D66G, G97L
VL: B1 VL with P15L, E17Q, L29I, R32S, L42Q, K44R, Q50R, L51R
notes: as for B2
[4]
  MFI: 285 MFI

B7: Hu1B5-H2/Hu1B5-L2 (antibody, human IgG1, V domains shown)
VH: B2 VH with I48M, A68V, L70M, S76T
VL: B1 VL with P15L, E17Q, L29I, R32S, L42Q, K44R, Q50R, L51R, Y94F
notes: as for B2
[3]
  MFI: 243 MFI

B8: Hu3F6-H2/Hu3F6-L5 (antibody, human IgG1, V domains shown)
VH: B1 VH
VL: B1 VL with S7T, P12S, E17Q
notes: Human IgG1 FES (L234F, L235E, P331S) and human Ig kappa constant domains; also called Hu3F6 VH2/VL5
[1]
  EC50: 0.53 nM
[2]
  MFI: 1790 MFI

B9: Hu1B5-H6/Hu1B5-L3 (antibody, human IgG1, V domains shown)
VH: B3 VH
VL: B1 VL with P15L, E17Q, L29I, R32S, L42Q, K44R, Q50R, Y94F
notes: as for B2
[3]
  MFI: 1910 MFI

B10: Hu1B5-H1/Hu1B5-L3 (antibody, human IgG1, V domains shown)
VH: B2 VH with E1Q, T24A, I48M, A68V, L70M, V72R, S76T
VL: B1 VL with P15L, E17Q, L29I, R32S, L42Q, K44R, Q50R, Y94F
notes: as for B2
[3]
  MFI: 1840 MFI

B11: Hu1B5-H5/Hu1B5-L1: humanized anti-A2aR IgG1 FES antibody; HCVR SEQ ID NO:56, LCVR SEQ ID NO:71 (antibody, V domains shown)
VH: B2 VH with N61A, T74K
VL: B1 VL with P15L, E17Q, L29I, R32S, Y41F, L42Q, K44R, Q50R, L51R, Y94F
modifications: IgG1 FES constant regions
Human A2aR
  binding to human A2aR on cell surface, mean fluorescence intensity (MFI): 82

B12: Hu3F6-H2/Hu3F6-L3 (antibody, human IgG1, V domains shown)
VH: B1 VH
VL: B1 VL with P15L, E17Q, L42Q, K44R, Q50R
notes: Human IgG1 FES (L234F, L235E, P331S) and human Ig kappa constant domains; also called Hu3F6 VH2/VL3
[1]
  EC50: 0.65 nM
[2]
  MFI: 1830 MFI

B13: Hu1B5-H6/Hu1B5-L2 (antibody, human IgG1, V domains shown)
VH: B3 VH
VL: B1 VL with P15L, E17Q, L29I, R32S, L42Q, K44R, Q50R, L51R, Y94F
notes: as for B2
[3]
  MFI: 359 MFI

B14: Hu1B5-H4/Hu1B5-L3 (antibody, human IgG1, V domains shown)
VH: B2 VH with T74K
VL: B1 VL with P15L, E17Q, L29I, R32S, L42Q, K44R, Q50R, Y94F
notes: as for B2
[3]
  MFI: 1860 MFI

B15: Hu1B5-H2/Hu1B5-L3 (antibody, human IgG1, V domains shown)
VH: B2 VH with I48M, A68V, L70M, S76T
VL: B1 VL with P15L, E17Q, L29I, R32S, L42Q, K44R, Q50R, Y94F
notes: as for B2
[3]
  MFI: 1870 MFI

B16: Hu1B5-H2.1/Hu1B5-L3 (antibody, human IgG1, V domains shown)
VH: B2 VH with A68V, L70M, S76T
VL: B1 VL with P15L, E17Q, L29I, R32S, L42Q, K44R, Q50R, Y94F
notes: as for B2
[3]
  MFI: 1860 MFI

B17: Hu1B5-H4/Hu1B5-L2 (antibody, human IgG1, V domains shown)
VH: B2 VH with T74K
VL: B1 VL with P15L, E17Q, L29I, R32S, L42Q, K44R, Q50R, L51R, Y94F
notes: as for B2
[3]
  MFI: 263 MFI

B18: Hu1B5-H3/Hu1B5-L1: humanized anti-A2aR IgG1 FES antibody; HCVR SEQ ID NO:54, LCVR SEQ ID NO:71 (antibody, V domains shown)
VH: B2 VH
VL: B1 VL with P15L, E17Q, L29I, R32S, Y41F, L42Q, K44R, Q50R, L51R, Y94F
modifications: IgG1 FES constant regions
Human A2aR
  binding to human A2aR on cell surface, mean fluorescence intensity (MFI): 152

B19: Hu3F6-H2/Hu3F6-L4 (antibody, human IgG1, V domains shown)
VH: B1 VH
VL: B1 VL with V2I, S7T, P12S, E17Q
notes: Human IgG1 FES (L234F, L235E, P331S) and human Ig kappa constant domains; also called Hu3F6 VH2/VL4
[1]
  EC50: 0.68 nM
[2]
  MFI: 1590 MFI

B20: Hu1B5-H5/Hu1B5-L3 (antibody, human IgG1, V domains shown)
VH: B2 VH with N61A, T74K
VL: B1 VL with P15L, E17Q, L29I, R32S, L42Q, K44R, Q50R, Y94F
notes: as for B2
[3]
  MFI: 1950 MFI

B21: Hu1B5-H3/Hu1B5-L2 (antibody, human IgG1, V domains shown)
VH: B2 VH
VL: B1 VL with P15L, E17Q, L29I, R32S, L42Q, K44R, Q50R, L51R, Y94F
notes: as for B2
[3]
  MFI: 231 MFI

B22: Hu3F8-H1/Hu3F8-L4 (antibody, human IgG1, V domains shown)
VH: B1 VH with E1Q, T24A, A28T, S31R, A58T, H61N, V72R, H109Q
VL: B1 VL with V2I, L29I, R32S
notes: as for B2
[4]
  MFI: 1750 MFI

B23: Hu3F8-H1/Hu3F8-L1 (antibody, human IgG1, V domains shown)
VH: B1 VH with E1Q, T24A, A28T, S31R, A58T, H61N, V72R, H109Q
VL: B1 VL with P15L, E17Q, L29I, R32S, Y41F, L42Q, K44R, Q50R, L51R
notes: as for B2
[4]
  MFI: 9 MFI

B24: Hu3F8-H2/Hu3F8-L4 (antibody, human IgG1, V domains shown)
VH: B1 VH with T24A, A28T, S31R, A58T, H61N, H109Q
VL: B1 VL with V2I, L29I, R32S
notes: as for B2
[4]
  MFI: 1780 MFI

B25: Hu3F8-H2/Hu3F8-L1 (antibody, human IgG1, V domains shown)
VH: B1 VH with T24A, A28T, S31R, A58T, H61N, H109Q
VL: B1 VL with P15L, E17Q, L29I, R32S, Y41F, L42Q, K44R, Q50R, L51R
notes: as for B2
[4]
  MFI: 16 MFI

B26: Hu3F8-H5.1/Hu3F8-L3 (antibody, human IgG1, V domains shown)
VH: B2 VH with T24A, F32Y, Y54S, Q59H, N61A, D66G, T74K, S76T, G97L
VL: B1 VL with P15L, E17Q, L29I, R32S, L42Q, K44R, Q50R
notes: Human IgG1 FES (L234F, L235E, P331S) and human Ig kappa constant domains; also called Hu3F8 VH5.1/VL3
[1]
  EC50: 0.62 nM

B27: Hu3F6-H3/Hu3F6-L8 (antibody, human IgG1, V domains shown)
VH: B1 VH with M48I, V68A, M70L, T76S
VL: B1 VL
notes: Human IgG1 FES (L234F, L235E, P331S) and human Ig kappa constant domains; also called Hu3F6 VH3/VL8
[1]
  EC50: 0.76 nM
[2]
  MFI: 1830 MFI

B28: Hu3F8-H1/Hu3F8-L2 (antibody, human IgG1, V domains shown)
VH: B1 VH with E1Q, T24A, A28T, S31R, A58T, H61N, V72R, H109Q
VL: B1 VL with P15L, E17Q, L29I, R32S, L42Q, K44R, Q50R, L51R
notes: as for B2
[4]
  MFI: 10 MFI

B29: Hu3F8-H5.1/Hu3F8-L5 (antibody, human IgG1, V domains shown)
VH: B2 VH with T24A, F32Y, Y54S, Q59H, N61A, D66G, T74K, S76T, G97L
VL: B1 VL with L29I, R32S
notes: Human IgG1 FES (L234F, L235E, P331S) and human Ig kappa constant domains; also called Hu3F8 VH5.1/VL5
[1]
  EC50: 0.69 nM

B30: Hu1B5-H6/Hu1B5-L5 (antibody, human IgG1, V domains shown)
VH: B3 VH
VL: DIVMTQSPDSLAVSLGERATINCRSSQSIVHSNGNTYLEWYQQKPGQPPKLLIYKVSNRFSGVPDRFSGSGSGTDFTLTISSLQAEDVAVYYCFQGSHVPLTFGGGTKVEIK
notes: as for B2
[3]
  MFI: 702 MFI
